Experimental data reported in patent US20160168251A1 (MorphoSys, published 2016).

Columns and labels:
[1] = molecular target: T1, human NPRA on HEK293 cells bound to ANP (human, UniProt P01160 124-151); assay: cell-based or functional assay
T1 sequence: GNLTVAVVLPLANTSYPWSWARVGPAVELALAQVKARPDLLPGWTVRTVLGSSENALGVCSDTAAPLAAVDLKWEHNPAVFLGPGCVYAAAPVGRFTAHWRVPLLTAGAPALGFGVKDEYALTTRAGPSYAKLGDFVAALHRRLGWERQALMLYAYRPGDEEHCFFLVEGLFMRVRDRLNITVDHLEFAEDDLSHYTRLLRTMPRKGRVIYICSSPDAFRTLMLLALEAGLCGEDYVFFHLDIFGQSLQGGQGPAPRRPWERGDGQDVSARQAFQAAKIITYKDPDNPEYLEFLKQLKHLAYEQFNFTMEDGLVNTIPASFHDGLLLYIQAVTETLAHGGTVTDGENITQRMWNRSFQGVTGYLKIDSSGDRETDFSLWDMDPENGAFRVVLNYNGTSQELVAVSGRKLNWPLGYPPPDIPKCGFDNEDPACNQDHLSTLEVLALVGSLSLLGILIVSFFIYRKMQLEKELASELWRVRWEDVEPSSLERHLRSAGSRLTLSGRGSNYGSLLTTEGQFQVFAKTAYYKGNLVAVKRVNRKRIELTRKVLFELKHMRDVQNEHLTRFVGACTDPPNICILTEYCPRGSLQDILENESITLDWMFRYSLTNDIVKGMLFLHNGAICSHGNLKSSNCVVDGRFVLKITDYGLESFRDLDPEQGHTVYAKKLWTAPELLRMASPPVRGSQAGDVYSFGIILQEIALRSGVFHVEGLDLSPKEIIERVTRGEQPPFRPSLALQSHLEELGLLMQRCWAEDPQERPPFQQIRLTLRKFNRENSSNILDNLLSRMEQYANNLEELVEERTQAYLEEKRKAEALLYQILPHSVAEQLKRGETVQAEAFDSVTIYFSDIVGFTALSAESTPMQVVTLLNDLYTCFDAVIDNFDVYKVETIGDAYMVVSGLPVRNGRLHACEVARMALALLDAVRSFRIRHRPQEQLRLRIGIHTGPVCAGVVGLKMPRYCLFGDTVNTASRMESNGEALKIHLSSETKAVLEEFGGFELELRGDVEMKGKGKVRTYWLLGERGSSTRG
T1 sequence (peptide): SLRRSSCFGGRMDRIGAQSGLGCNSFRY

[2] = molecular target: T2, NPRA-Fc fusion protein bound to BNP (human, UniProt P16860 103-134); assay: SPR (Biacore 3000), NPRA-Fc amine-coupled on CM5, IgG with 100 nM human BNP
T2 construct: mature; Receptor-ligand complex; also called NPRA-Fc in the presence of BNP
Experimental: In another assay, the purified human NPRA-Fc fusion protein construct is used to develop a surface plasmon resonance (BIAcore) assay for determining affinity and kinetic constants for the antibodies. NPRA-Fc in 10 mM sodium acetate buffer, pH 5.5 is immobilized on a CM5 chip in a Biacore 3000 instrument (GE Healthcare, Biacore, Inc.) through amine coupling at a density of 1000 RU. […] The collected association and dissociation data from each experiment is globally fitted with the association (kₐ) and dissociation (kd) rates fit simultaneously.

[3] = molecular target: T3, human NPRC on HEK293 cells in the presence of BNP (human, UniProt P17342 27-541; P16860 103-134); assay: FACS, HEK NPRC cells with 100 nM BNP
T3 construct: whole, on cells;mature; also called HEK NPRC cells + 100 nM BNP
T3 sequence (looked up): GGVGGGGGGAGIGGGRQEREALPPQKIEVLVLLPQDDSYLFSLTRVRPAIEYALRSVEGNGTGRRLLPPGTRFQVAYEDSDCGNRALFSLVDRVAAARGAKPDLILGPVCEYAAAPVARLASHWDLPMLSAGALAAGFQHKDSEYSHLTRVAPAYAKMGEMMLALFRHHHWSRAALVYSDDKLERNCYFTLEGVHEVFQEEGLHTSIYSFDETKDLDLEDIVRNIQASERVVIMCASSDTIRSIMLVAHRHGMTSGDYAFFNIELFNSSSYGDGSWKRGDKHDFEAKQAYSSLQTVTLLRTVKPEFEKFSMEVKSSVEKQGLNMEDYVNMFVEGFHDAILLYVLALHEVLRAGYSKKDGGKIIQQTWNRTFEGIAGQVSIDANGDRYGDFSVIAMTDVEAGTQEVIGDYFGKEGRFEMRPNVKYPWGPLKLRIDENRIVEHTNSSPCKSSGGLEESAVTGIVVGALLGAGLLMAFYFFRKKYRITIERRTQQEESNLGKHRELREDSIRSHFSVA
T3 sequence (peptide, looked up): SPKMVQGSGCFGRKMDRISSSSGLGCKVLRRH
Experimental: (§1) HEK NPRA cells are detached with Accutase (PAA Laboratories GmbH, Cat. No. L11-007, Austria), harvested by centrifugation (900 rpm, 4 minutes) and resuspended in FACS buffer (PBS/3% FCS/0.02% NaN3) to a final concentration of 10⁶ cells/ml. 100 μl of the cell suspension is transferred to each well of a 96 round bottom plate (TC Microwell 96U, Nunc). […] Cells are washed in 150 μl of FACS buffer, pelleted and resuspended in 50 μl of the solution containing the primary antibody comprising a BEL extract of Fabs, a diluted BEL extract or purified antibody diluted in FACS buffer and incubated on ice for 30 min. Cells are washed again in FACS buffer and resuspended in 50 μl of FACS buffer containing the secondary antibody (R-Phycoerythrin-conjugated Affipure F(ab′)₂ Fragment Goat Anti-Human IgG, Dianova) and incubated on ice for 45 min. Cells are washed twice with FACS buffer and resuspended in 200 μl of FACS buffer for analysis in the FACS Array (BD Biosciences).

[4] = molecular target: T4, human NPRC on HEK293 cells, without added ligand (human, UniProt P17342 27-541); assay: FACS, HEK NPRC cells without ligand
T4 construct: whole, on cells; also called HEK NPRC cells; natriuretic peptide receptor C
T4 sequence (looked up): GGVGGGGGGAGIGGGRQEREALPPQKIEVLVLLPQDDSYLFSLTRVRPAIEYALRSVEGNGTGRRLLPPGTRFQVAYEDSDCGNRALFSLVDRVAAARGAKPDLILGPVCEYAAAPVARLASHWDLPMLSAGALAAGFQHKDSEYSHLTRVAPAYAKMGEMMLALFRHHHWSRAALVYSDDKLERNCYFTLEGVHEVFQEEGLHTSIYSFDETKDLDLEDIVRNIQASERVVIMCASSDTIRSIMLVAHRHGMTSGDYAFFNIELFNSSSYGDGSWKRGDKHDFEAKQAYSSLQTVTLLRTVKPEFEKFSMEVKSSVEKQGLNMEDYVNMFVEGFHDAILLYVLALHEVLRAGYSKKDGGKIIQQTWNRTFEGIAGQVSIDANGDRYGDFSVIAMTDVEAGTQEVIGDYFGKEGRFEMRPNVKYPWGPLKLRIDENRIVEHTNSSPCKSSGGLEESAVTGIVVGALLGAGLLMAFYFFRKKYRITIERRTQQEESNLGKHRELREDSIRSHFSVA
Experimental: as §1

[5] = molecular target: T1, human NPRA on HEK293 cells bound to ANP; assay: FACS, IgG4_Pro on HEK NPRA cells in the presence of 100 nM ANP
Experimental: as §1

[6] = molecular target: T5, NPRA-Fc fusion protein bound to ANP (human, UniProt P01160 124-151); assay: SPR (Biacore 3000), NPRA-Fc amine-coupled on CM5, analyte with 100 nM human ANP
T5 construct: mature; Receptor-ligand complex; 'human ANP' is stated for Biacore, plain 'ANP' for ELISA and HXMS; also called NPRA-Fc+ANP

[7] = molecular target: T6, NPRA-Fc fusion protein bound to urodilatin (human, UniProt P01160 120-151); assay: SPR (Biacore 3000), NPRA-Fc amine-coupled on CM5, IgG with 100 nM human urodilatin
T6 construct: Receptor-ligand complex; also called NPRA-Fc in the presence of urodilatin

[8] = molecular target: T7, human NPRC on HEK293 cells in the presence of ANP (human, UniProt P17342 27-541; P01160 124-151); assay: FACS, HEK NPRC cells with 100 nM ANP
T7 construct: whole, on cells;mature; also called HEK NPRC cells + 100 nM ANP
T7 sequence (looked up): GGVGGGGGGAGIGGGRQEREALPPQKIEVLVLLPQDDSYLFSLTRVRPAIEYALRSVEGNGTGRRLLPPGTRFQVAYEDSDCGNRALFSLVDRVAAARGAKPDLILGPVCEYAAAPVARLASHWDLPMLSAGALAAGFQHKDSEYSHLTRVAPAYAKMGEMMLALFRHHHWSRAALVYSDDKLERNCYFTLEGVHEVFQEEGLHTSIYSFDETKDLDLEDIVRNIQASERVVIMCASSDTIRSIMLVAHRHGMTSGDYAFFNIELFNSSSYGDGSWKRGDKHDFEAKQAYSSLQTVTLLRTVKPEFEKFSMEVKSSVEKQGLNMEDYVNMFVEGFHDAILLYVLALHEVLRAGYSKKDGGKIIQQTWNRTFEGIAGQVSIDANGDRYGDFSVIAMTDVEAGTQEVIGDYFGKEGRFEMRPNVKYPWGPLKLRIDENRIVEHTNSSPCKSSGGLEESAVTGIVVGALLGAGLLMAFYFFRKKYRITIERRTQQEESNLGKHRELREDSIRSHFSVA
T7 sequence (peptide, looked up): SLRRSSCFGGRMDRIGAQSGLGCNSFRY
Experimental: as §1

[9] = molecular target: T1, human NPRA on HEK293 cells bound to ANP; assay: cell-based or functional assay; remark: listed apart in the source
[10] = molecular target: T8, human NPRA on HEK293 cells, without added ligand (human, UniProt P16066 33-1061); assay: FACS, HEK NPRA cells without ligand
T8 construct: a signal peptide is not delimited; also called HEK NPRA cells; HEK hNPRA cells
T8 sequence: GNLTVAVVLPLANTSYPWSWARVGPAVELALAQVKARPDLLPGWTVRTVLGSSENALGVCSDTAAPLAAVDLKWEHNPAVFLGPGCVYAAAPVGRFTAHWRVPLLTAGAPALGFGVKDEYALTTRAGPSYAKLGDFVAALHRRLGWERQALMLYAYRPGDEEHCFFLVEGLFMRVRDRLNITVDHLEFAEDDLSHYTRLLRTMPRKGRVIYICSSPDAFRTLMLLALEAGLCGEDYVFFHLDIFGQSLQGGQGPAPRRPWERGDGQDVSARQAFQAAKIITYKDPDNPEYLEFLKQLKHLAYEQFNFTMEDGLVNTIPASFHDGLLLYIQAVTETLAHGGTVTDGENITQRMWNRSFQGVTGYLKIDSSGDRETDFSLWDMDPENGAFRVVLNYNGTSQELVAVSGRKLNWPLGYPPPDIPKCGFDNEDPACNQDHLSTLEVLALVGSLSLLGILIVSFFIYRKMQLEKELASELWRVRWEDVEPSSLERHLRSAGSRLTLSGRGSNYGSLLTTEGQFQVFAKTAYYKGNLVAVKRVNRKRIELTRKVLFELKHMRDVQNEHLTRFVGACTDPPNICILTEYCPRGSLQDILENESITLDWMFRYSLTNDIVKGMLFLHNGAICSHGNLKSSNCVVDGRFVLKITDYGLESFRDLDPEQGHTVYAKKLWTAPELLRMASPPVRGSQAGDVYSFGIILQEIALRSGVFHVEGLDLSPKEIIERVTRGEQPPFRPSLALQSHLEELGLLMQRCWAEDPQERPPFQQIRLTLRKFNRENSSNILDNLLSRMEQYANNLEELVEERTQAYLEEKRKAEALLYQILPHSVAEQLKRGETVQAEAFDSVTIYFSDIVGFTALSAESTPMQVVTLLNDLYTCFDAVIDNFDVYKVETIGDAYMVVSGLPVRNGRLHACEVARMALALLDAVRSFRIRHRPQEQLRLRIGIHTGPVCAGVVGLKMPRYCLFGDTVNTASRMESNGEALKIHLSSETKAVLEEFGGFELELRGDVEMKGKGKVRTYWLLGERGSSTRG
Experimental: as §1

B1: 5502 IgG4_Pro (antibody, V domains shown)
VH: QVQLQQSGPGLVKPSQTLSLTCAISGDSVSSRSASWSWIRQSPGRGLEWLGRIYYRSKWYNDYAVSVKSRITINPDTSKNQFSLQLNSVTPEDTAVYYCARMDVPSFRYFDVWGQGTLVTVSS
VL: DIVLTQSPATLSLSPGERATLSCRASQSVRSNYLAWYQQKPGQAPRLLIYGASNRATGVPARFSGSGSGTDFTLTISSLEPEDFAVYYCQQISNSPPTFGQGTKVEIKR
notes: Human IgG4_Pro
- cGMP EC50 (nM), titration of the antibody on HEK NPRA cells with 200 pM ANP [1]: 2.1 nM
- Kd [2]: 413 pM
- koff [2]: 0.000563 s⁻¹
- kon [2]: 1.36e+06 M⁻¹ s⁻¹
- binding result [3]: no binding (tested: 20 nM)
- binding result [4]: no binding (tested: 20 nM)
- EC50 [5]: 680 pM
- Kd [6]: 172 pM
- koff [6]: 0.000283 s⁻¹
- kon [6]: 1.65e+06 M⁻¹ s⁻¹
- Kd [7]: 211 pM
- koff [7]: 0.000448 s⁻¹
- kon [7]: 2.12e+06 M⁻¹ s⁻¹
- binding result [8]: no binding (tested: 20 nM)
- fold increase in the potency of ANP (cGMP, HEK NPRA cells, 200 nM IgG4_Pro) [9]: ≤ 10 fold

B2: 5591 IgG4_Pro (antibody, V domains shown)
VH: QVQLQQSGPGLVKPSQTLSLTCAISGDSVSSRSASWSWIRQSPGRGLEWLGRTYYRSHWYYEYAQSVKSRITINPDTSKNQFSLQLNSVTPEDTAVYYCARMDVPSFRYFDVWGQGTLVTVSS
VL: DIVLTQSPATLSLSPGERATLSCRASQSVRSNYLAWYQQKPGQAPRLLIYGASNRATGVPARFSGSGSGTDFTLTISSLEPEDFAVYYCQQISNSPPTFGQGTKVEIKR
- cGMP EC50 (nM), titration of the antibody on HEK NPRA cells with 200 pM ANP [1]: 0.5 nM
- Kd [2]: 380 pM
- koff [2]: 0.00102 s⁻¹
- kon [2]: 2.69e+06 M⁻¹ s⁻¹
- binding result [10]: no binding (tested: 20 nM)
- binding result [3]: no binding (tested: 20 nM)
- binding result [4]: no binding (tested: 20 nM)
- EC50 [5]: 730 pM
- Kd [6]: 27.5 pM
- koff [6]: 0.000107 s⁻¹
- kon [6]: 3.88e+06 M⁻¹ s⁻¹
- Kd [7]: 92.8 pM
- koff [7]: 0.000238 s⁻¹
- kon [7]: 2.56e+06 M⁻¹ s⁻¹
- binding result [8]: no binding (tested: 20 nM)
- fold increase in the potency of ANP (cGMP, HEK NPRA cells, 200 nM IgG4_Pro) [9]: ≤ 10 fold

B3: 5592 IgG4_Pro (antibody, V domains shown)
VH: QVQLQQSGPGLVKPSQTLSLTCAISGDSVSSRSASWSWIRQSPGRGLEWLGRTYYRSHWYYEYAQSVKSRITINPDTSKNQFSLQLNSVTPEDTAVYYCARMDVPSFRYFDVWGQGTLVTVSS
VL: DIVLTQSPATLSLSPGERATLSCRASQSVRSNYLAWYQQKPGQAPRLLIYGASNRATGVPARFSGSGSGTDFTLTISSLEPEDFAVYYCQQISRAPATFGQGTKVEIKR
- cGMP EC50 (nM), titration of the antibody on HEK NPRA cells with 200 pM ANP [1]: 1 nM
- Kd [2]: 45.9 pM
- koff [2]: 0.00034 s⁻¹
- kon [2]: 7.42e+06 M⁻¹ s⁻¹
- binding result [10]: no binding (tested: 20 nM)
- binding result [3]: no binding (tested: 20 nM)
- binding result [4]: no binding (tested: 20 nM)
- EC50 [5]: 520 pM
- Kd [6]: 11 pM
- koff [6]: 0.000106 s⁻¹
- kon [6]: 9.59e+06 M⁻¹ s⁻¹
- Kd [7]: 25.1 pM
- koff [7]: 9.94e-05 s⁻¹
- kon [7]: 3.96e+06 M⁻¹ s⁻¹
- binding result [8]: no binding (tested: 20 nM)
- fold increase in the potency of ANP (cGMP, HEK NPRA cells, 200 nM IgG4_Pro) [9]: ≤ 10 fold
